# Laboratory results taken from IntAct's records for PubMed 35512704.
# B1: Speckle-type POZ protein (Homo sapiens), O43791 (parent)
# chain: MSRVPSPPPPAEMSSGPVAESWCYTQIKVVKFSYMWTINNFSFCREEMGEVIKSSTFSSGANDKLKWCLRVNPKGLDEESKDYLSLYLLLVSCPKSEVRAKFKFSILNAKGEETKAMESQRAYRFVQGKDWGFKKFIRRDFLLDEANGLLPDDKLTLFCEVSVVQDSVNISGQNTMNMVKVPECRLADELGGLWENSRFTDCCLCVAGQEFQAHKAILAARSPVFSAMFEHEMEESKKNRVEINDVEPEVFKEMMCFIYTGKAPNLDKMADDLLAAADKYALERLKVMCEDALCSNLSVENAAEILILADLHSADQLKTQAVDFINYHASDVLETSGWKSMVVSHPHLVAEAYRSLASAQCPFLGPPRKRLKQS
# Variants of: B1
# Details: with brd4_human BRD4, O60885
row,effect of a mutation on the interaction,Variant
1,disrupting interaction strength,F102C

# Variants of: B1
# Details: with ncoa3_human NCOA3, Q9Y6Q9
row,effect of a mutation on the interaction,Variant
1,disrupting interaction strength,F102C

# Variants of: B1
# Details: with jun_human JUN
row,effect of a mutation on the interaction,Variant
1,disrupting interaction strength,F102C

# Variants of: B1
# Details: with akt1_human AKT1, P31749
row,effect of a mutation on the interaction,Variant
1,with no effect,F102C

# Variants of: B1
# Details: with alk_human ALK
row,effect of a mutation on the interaction,Variant
1,with no effect,F102C

# Variants of: B1
# Details: with aph1a_human APH1A
row,effect of a mutation on the interaction,Variant
1,with no effect,F102C

# Variants of: B1
# Details: with arnt_human ARNT
row,effect of a mutation on the interaction,Variant
1,with no effect,F102C

# Variants of: B1
# Details: with arc1a_human ARPC1A
row,effect of a mutation on the interaction,Variant
1,with no effect,F102C

# Variants of: B1
# Details: with bakor_human ATG14, Q6ZNE5
row,effect of a mutation on the interaction,Variant
1,with no effect,F102C

# Variants of: B1
# Details: with atm_human ATM
row,effect of a mutation on the interaction,Variant
1,with no effect,F102C

# Variants of: B1
# Details: with atpb_human ATP5F1B
row,effect of a mutation on the interaction,Variant
1,with no effect,F102C

# Variants of: B1
# Details: with aurkb_human AURKB
row,effect of a mutation on the interaction,Variant
1,with no effect,F102C

# Variants of: B1
# Details: with axin2_human AXIN2, Q9Y2T1
# Chain of axin2_human AXIN2, Q9Y2T1 (Q9Y2T1 whole entry): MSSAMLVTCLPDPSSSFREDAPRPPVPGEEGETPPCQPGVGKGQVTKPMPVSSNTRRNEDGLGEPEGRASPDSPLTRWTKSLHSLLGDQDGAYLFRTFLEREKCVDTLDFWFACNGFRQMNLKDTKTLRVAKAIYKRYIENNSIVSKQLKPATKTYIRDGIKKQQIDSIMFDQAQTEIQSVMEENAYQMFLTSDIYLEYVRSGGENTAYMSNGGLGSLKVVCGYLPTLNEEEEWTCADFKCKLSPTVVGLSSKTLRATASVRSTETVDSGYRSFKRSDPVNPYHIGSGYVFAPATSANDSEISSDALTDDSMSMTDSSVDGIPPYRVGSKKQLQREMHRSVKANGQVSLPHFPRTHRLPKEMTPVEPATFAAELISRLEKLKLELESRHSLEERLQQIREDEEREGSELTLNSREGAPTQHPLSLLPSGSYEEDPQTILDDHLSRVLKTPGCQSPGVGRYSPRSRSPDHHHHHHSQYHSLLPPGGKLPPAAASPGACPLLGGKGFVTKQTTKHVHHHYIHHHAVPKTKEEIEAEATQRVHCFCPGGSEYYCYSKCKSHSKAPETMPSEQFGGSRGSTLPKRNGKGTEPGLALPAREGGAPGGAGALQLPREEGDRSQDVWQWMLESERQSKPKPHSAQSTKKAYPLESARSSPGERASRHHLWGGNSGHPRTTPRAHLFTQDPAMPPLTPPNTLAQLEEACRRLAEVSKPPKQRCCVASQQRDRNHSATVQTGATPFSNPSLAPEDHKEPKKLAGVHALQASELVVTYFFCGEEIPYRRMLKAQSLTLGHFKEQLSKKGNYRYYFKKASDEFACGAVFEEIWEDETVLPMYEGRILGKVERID
row,effect of a mutation on the interaction,Variant
1,with no effect,F102C

# Variants of: B1
# Details: with ufo_human AXL
row,effect of a mutation on the interaction,Variant
1,with no effect,F102C

# Variants of: B1
# Details: with za2g_human AZGP1, P25311
# Chain of za2g_human AZGP1, P25311 (P25311 whole entry): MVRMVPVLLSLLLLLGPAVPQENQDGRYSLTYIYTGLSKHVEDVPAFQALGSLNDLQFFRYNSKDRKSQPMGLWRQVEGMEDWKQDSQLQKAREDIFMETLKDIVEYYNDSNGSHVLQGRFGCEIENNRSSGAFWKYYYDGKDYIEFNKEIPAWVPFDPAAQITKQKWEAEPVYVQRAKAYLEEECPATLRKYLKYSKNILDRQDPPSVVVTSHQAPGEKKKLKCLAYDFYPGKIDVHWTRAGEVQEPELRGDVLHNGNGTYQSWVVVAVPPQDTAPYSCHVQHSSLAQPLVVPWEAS
row,effect of a mutation on the interaction,Variant
1,with no effect,F102C

# Variants of: B1
# Details: with bap1_human BAP1, Q92560
row,effect of a mutation on the interaction,Variant
1,with no effect,F102C

# Variants of: B1
# Details: with bard1_human BARD1, Q99728
row,effect of a mutation on the interaction,Variant
1,with no effect,F102C

# Variants of: B1
# Details: with bcor_human BCOR
row,effect of a mutation on the interaction,Variant
1,with no effect,F102C

# Variants of: B1
# Details: with birc2_human BIRC2, Q13490
row,effect of a mutation on the interaction,Variant
1,with no effect,F102C

# Variants of: B1
# Details: with brd4_human BRD4, O60885
# Remark: another data set of the same source
row,effect of a mutation on the interaction,Variant
1,with no effect,F102C

# Variants of: B1
# Details: with baba2_human BABAM2, Q9NXR7
# Chain of baba2_human BABAM2, Q9NXR7 (Q9NXR7 whole entry): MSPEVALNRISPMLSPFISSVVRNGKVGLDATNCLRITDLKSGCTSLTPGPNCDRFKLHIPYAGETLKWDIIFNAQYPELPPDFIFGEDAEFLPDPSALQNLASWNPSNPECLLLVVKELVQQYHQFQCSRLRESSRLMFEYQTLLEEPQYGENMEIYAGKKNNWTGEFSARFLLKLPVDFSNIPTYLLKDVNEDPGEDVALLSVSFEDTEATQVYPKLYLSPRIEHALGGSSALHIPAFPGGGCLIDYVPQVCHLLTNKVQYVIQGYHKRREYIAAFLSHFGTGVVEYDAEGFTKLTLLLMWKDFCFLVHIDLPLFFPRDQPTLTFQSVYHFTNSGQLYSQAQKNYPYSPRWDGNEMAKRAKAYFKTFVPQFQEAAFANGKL
row,effect of a mutation on the interaction,Variant
1,with no effect,F102C

# Variants of: B1
# Details: with btg1_human BTG1, P62324
row,effect of a mutation on the interaction,Variant
1,with no effect,F102C

# Variants of: B1
# Details: with btk_human BTK
row,effect of a mutation on the interaction,Variant
1,with no effect,F102C

# Variants of: B1
# Details: with ccnd1_human CCND1, P24385
# Chain of ccnd1_human CCND1, P24385 (P24385 whole entry): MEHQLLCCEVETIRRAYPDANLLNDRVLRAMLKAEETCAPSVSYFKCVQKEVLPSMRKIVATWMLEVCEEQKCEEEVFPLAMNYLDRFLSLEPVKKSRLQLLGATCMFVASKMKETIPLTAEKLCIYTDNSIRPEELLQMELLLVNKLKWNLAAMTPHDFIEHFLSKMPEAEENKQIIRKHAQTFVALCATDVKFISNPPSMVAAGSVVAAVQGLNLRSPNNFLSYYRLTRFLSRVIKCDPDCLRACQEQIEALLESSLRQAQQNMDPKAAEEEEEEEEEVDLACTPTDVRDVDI
row,effect of a mutation on the interaction,Variant
1,with no effect,F102C

# Variants of: B1
# Details: with ccnd2_human CCND2, P30279
# Chain of ccnd2_human CCND2, P30279 (P30279 whole entry): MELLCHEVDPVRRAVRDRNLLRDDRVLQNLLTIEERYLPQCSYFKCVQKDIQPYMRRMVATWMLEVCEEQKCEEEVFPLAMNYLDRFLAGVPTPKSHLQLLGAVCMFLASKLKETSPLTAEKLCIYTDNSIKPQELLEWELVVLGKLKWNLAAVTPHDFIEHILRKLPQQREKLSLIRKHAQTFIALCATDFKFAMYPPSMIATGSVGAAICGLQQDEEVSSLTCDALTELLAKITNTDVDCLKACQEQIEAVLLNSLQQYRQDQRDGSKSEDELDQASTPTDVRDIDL
row,effect of a mutation on the interaction,Variant
1,with no effect,F102C

# Variants of: B1
# Details: with ccnd3_human CCND3, P30281
# Chain of ccnd3_human CCND3, P30281 (P30281 whole entry): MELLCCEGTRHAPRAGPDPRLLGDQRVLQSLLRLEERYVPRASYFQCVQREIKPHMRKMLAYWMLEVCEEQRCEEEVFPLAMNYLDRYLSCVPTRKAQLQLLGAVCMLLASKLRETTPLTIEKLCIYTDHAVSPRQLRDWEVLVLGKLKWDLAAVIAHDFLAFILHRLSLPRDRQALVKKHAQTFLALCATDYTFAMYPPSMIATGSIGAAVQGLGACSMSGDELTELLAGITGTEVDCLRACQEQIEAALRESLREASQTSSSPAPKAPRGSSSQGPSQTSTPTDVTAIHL
row,effect of a mutation on the interaction,Variant
1,with no effect,F102C

# Variants of: B1
# Details: with cd44_human CD44, P16070
row,effect of a mutation on the interaction,Variant
1,with no effect,F102C

# Variants of: B1
# Details: with cd79b_human CD79B
row,effect of a mutation on the interaction,Variant
1,with no effect,F102C

# Variants of: B1
# Details: with cdc27_human CDC27, P30260
row,effect of a mutation on the interaction,Variant
1,with no effect,F102C

# Variants of: B1
# Details: with cdc73_human CDC73, Q6P1J9
row,effect of a mutation on the interaction,Variant
1,with no effect,F102C

# Variants of: B1
# Details: with cdk4_human CDK4, P11802
# Chain of cdk4_human CDK4, P11802 (P11802 whole entry): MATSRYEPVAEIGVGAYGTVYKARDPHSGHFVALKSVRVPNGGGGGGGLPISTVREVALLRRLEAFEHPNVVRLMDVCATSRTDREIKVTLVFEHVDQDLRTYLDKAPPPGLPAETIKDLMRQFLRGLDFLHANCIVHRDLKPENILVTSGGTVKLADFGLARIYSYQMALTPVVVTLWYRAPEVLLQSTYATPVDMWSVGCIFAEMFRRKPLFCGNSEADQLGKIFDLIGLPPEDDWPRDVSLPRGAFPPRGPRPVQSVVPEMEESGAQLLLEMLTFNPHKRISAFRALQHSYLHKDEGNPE
row,effect of a mutation on the interaction,Variant
1,with no effect,F102C

# Variants of: B1
# Details: with cdk6_human CDK6, Q00534
# Chain of cdk6_human CDK6, Q00534 (Q00534 whole entry): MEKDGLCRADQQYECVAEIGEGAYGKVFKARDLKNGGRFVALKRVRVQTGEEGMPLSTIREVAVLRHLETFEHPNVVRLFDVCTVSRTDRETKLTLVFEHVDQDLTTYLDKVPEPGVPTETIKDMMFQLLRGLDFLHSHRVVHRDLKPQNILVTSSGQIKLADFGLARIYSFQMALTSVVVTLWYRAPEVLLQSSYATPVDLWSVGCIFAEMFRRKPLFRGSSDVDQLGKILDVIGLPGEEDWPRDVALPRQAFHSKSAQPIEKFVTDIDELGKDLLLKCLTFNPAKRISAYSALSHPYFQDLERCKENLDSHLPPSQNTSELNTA
row,effect of a mutation on the interaction,Variant
1,with no effect,F102C

# Variants of: B1
# Details: with cdn2c_human CDKN2C
row,effect of a mutation on the interaction,Variant
1,with no effect,F102C

# Variants of: B1
# Details: with chd1l_human CHD1L
row,effect of a mutation on the interaction,Variant
1,with no effect,F102C

# Variants of: B1
# Details: with chd2_human CHD2, O14647
row,effect of a mutation on the interaction,Variant
1,with no effect,F102C

# Variants of: B1
# Details: with ch3l1_human CHI3L1, P36222
# Chain of ch3l1_human CHI3L1, P36222 (P36222 whole entry): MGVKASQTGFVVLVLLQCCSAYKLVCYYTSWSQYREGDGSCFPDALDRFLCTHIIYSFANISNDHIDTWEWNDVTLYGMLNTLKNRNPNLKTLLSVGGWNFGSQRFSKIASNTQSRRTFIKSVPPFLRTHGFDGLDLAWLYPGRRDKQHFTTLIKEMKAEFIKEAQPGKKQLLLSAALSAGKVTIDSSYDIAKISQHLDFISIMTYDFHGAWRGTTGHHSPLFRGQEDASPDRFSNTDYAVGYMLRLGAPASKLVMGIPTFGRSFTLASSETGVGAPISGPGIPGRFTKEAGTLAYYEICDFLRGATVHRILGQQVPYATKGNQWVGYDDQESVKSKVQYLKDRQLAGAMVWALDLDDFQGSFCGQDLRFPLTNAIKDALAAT
row,effect of a mutation on the interaction,Variant
1,with no effect,F102C

# Variants of: B1
# Details: with ctla4_human CTLA4, P16410
row,effect of a mutation on the interaction,Variant
1,with no effect,F102C

# Variants of: B1
# Details: with cul3_human CUL3, Q13618
# Chain of cul3_human CUL3, Q13618 (Q13618 whole entry): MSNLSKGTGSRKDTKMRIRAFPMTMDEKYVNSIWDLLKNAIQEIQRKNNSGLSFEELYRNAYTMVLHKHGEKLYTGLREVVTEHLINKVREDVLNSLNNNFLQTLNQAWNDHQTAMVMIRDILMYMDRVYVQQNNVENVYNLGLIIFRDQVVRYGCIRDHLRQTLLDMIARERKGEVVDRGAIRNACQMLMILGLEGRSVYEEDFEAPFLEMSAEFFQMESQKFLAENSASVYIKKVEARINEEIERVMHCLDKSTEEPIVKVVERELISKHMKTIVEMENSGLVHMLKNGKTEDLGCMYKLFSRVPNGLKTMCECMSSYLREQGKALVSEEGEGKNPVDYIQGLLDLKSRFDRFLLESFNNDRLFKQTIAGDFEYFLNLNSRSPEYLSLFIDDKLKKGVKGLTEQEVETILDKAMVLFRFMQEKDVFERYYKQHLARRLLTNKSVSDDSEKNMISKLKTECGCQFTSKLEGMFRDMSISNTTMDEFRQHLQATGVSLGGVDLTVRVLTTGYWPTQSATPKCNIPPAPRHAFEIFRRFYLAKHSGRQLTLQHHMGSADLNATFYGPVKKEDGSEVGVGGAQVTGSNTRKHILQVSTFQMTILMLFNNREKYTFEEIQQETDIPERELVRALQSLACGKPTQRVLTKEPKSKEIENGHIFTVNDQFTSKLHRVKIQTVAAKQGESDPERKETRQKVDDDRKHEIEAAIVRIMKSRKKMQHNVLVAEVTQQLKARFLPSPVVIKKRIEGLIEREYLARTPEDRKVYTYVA
row,effect of a mutation on the interaction,Variant
1,with no effect,F102C

# Variants of: B1
# Details: with cul4b_human CUL4B
row,effect of a mutation on the interaction,Variant
1,with no effect,F102C

# Variants of: B1
# Details: with daxx_human DAXX
row,effect of a mutation on the interaction,Variant
1,with no effect,F102C

# Variants of: B1
# Details: with ddx5_human DDX5, P17844
# Chain of ddx5_human DDX5, P17844 (P17844 whole entry): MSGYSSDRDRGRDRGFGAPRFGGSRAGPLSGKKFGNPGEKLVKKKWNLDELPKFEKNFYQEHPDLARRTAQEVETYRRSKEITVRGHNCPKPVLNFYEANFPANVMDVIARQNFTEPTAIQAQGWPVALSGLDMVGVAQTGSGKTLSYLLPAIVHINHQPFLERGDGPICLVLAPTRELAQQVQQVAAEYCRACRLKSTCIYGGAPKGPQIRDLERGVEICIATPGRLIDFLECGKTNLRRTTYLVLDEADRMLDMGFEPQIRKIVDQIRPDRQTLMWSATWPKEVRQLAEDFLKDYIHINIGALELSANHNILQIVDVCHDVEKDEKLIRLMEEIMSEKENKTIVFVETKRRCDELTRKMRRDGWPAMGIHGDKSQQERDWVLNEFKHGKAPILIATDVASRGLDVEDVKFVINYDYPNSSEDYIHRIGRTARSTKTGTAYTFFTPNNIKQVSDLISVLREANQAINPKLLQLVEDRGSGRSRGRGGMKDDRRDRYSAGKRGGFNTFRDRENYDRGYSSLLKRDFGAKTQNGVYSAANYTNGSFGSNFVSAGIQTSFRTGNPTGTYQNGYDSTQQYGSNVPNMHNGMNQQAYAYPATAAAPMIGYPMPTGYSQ
row,effect of a mutation on the interaction,Variant
1,with no effect,F102C
